Measured values published in patent US20150368299A1.

Assays:
[1] = molecular target: Aβ(1-42) globulomer (human) (UniProt P05067); assay: dot blot with densitometry; Aβ form dotted on nitrocellulose in serial dilution, antibody 0.2 µg/ml; higher value = weaker recognition
[2] = molecular target: Aβ(1-42) monomer in 0.1% NaOH (human); assay: as above
[3] = molecular target: Aβ(1-42) fibril (human) (UniProt P05067); assay: as above
[4] = molecular target: Aβ(1-42) monomer in 0.1% NH4OH (human); assay: as above
Aβ(1-42) monomer in 0.1% NH4OH (human), sequence (peptide, as listed by the source): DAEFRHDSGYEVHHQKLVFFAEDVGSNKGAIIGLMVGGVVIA

[5] = molecular target: Aβ(1-40) monomer in 0.1% NH4OH (human); assay: as above
Aβ(1-40) monomer in 0.1% NH4OH (human), sequence (peptide, as listed by the source): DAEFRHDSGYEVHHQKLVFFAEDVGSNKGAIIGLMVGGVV

[6] = molecular target: Aβ(1-40) monomer in 0.1% NaOH (human); assay: as above
[7] = molecular target: platelet factor 4 (PF-4) in Cynomolgus monkey plasma (cynomolgus monkey (Macaca fascicularis)); assay: aligned sandwich ELISA with cynomolgus plasma; AUC of the reference anti-HPF4 antibody over AUC of this antibody
platelet factor 4 (PF-4) in Cynomolgus monkey plasma (cynomolgus monkey (Macaca fascicularis)), sequence (chain, as listed by the source): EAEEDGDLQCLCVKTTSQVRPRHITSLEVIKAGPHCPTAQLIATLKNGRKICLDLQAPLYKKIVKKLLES

[8] = molecular target: human platelet factor 4 (HPF4) in human plasma spiked with human PF4 (human) (UniProt P02776); assay: sandwich ELISA with HPF4-spiked human plasma; AUC of the reference anti-HPF4 antibody over AUC of this antibody
human platelet factor 4 (HPF4) in human plasma spiked with human PF4 (human), sequence (P02776 32-101): as the sequence (chain, as listed by the source) above, with V64I counted along it

[9] = molecular target: human platelet factor 4 (HPF4) in human plasma spiked with human PF4 (human) (UniProt P02776); assay: aligned sandwich ELISA with HPF4-spiked human plasma; AUC of the reference anti-HPF4 antibody over AUC of this antibody
[10] = molecular target: platelet factor 4 (PF-4) in Cynomolgus monkey plasma (cynomolgus monkey (Macaca fascicularis)); assay: sandwich ELISA with cynomolgus plasma; AUC of the reference anti-HPF4 antibody over AUC of this antibody

Row | dot blot relation of recognition of Aβ(20-42) globulomer to recognition of this Aβ form [1] | dot blot relation of recognition of Aβ(20-42) globulomer to recognition of this Aβ form [2] | dot blot relation of recognition of Aβ(20-42) globulomer to recognition of this Aβ form [3] | dot blot relation of recognition of Aβ(20-42) globulomer to recognition of this Aβ form [4] | dot blot relation of recognition of Aβ(20-42) globulomer to recognition of this Aβ form [5] | dot blot relation of recognition of Aβ(20-42) globulomer to recognition of this Aβ form [6] | Ratio HPF4/aAβ antibody (PF4 discrimination factor) [7] | Ratio HPF4/aAβ antibody (PF4 discrimination factor) [8] | Ratio HPF4/aAβ antibody (PF4 discrimination factor) [9] | Ratio HPF4/aAβ antibody (PF4 discrimination factor) [10] | Substance
1 | 0.09 | 10 | 29 | 10 | 3 | 20 |  |  |  |  | Anti-Aβ monoclonal antibody clone 6E10 (Covance cat. no. SIG-39320)
2 |  |  |  |  |  |  | 1 | 1 | 1 | 1 | Anti-HPF4 monoclonal antibody (Abcam Cat. No. ab49735)
3 |  |  |  |  |  |  | 325 | 331 | 118 | 517 | Monoclonal antibody clone mIgG2a
